Patent US20200055923A1 (HEXAL, published 2020)

Molecular target: T1, VEGF165 (human VEGF-A), immobilized (human, UniProt P15692-4 27-191)
T1 construct: Immobilized on the Biacore chip; also called vascular endothelial growth factor A
Test: SPR (Biacore), VEGF165 immobilized
Protocol: To study the binding of bevacizumab to VEGF, a surface plasmon resonance (SPR) assay using Biacore™ was carried out. The interaction between bevacizumab and its target, immobilized VEGF₁₆₅, is monitored in real time. Analysis of the association and dissociation of the binding partners allows the retrieval of the kinetic parameters kₐ (association rate constant) and kd (dissociation rate constant), which quantifies the interaction between bevacizumab or its variants and VEGF₁₆₅. Furthermore, the equilibrium dissociation constant KD is calculated using the formula KD=kd/kₐ.

T1 sequence (P15692 other isoform, or with tags, fused parts or gaps limits assumed): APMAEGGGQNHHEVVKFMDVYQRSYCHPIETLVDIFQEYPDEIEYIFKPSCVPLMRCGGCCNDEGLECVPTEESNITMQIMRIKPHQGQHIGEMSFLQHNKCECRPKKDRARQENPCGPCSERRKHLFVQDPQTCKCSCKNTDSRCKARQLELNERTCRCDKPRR

B1: bevacizumab CEX peak 1, fraction enriched in CDR-H1 glycosylated bevacizumab (antibody, human IgG1, kappa, V domains shown)
VH: EVQLVESGGGLVQPGGSLRLSCAASGYTFTNYGMNWVRQAPGKGLEWVGWINTYTGEPTYAADFKRRFTFSLDTSKSTAYLQMNSLRAEDTAVYYCAKYPHYYGSSHWYFDVWGQGTLVTVSS
VL: DIQMTQSPSSLSASVGDRVTITCSASQDISNYLNWYQQKPGKAPKVLIYFTSSLHSGVPSRFSGSGSGTDFTLTISSLQPEDFATYYCQQYSTVPWTFGQGTKVEIKR
modifications: N-linked complex-type glycan (core-fucosylated, mono- to tetra-antennary, partly sialylated) at N31 of the heavy chain, in CDR-H1
notes: Humanized IgG1; also called enriched CDR-H1 glycosylated bevacizumab obtained from CEX; Fd-glycosylated variant
  Kd: 0.235 nM
